The labels stand for the following.
B1: LK-VRB-1s* (ligand)
chain: APMAEGGGQNHHEVVKFEDVLRRSSCHPIETLVDIFQEYPDEIEYIFKPSCVPLMRCGGCCNDEGLECVPTEESNITMQIMRIKPHQGQHIGEMSFLQHNKCECRPKKD
B2: LK-VRB-19s (ligand)
chain: B1 chain with L21Y, D63S, G65M, L66R
B3: LK-VRB-9s (ligand)
chain: B1 chain with E18M, L21Y, S25Y, D63S, G65M, L66R
B4: LK-VRB-8s* (ligand)
chain: B1 chain with E18M, R22Q, S25Y, D63S, G65M, L66R
notes: 'Y2IL' read as Y21L (codon CTC)
B5: LK-VRB-4s (ligand)
chain: B1 chain with F17I, L21F, R22E, S25I
notes: the codon printed for Y25I is CAC (His)
B6: LK-VRB-13s (ligand)
chain: B1 chain with L21Y, R22Q, D63S, G65M, L66R
B7: LK-VRB-23s (ligand)
chain: B1 chain with L66R
B8: LK-VRB-17s (ligand)
chain: B1 chain with S25Y, D63S, G65M, L66R
B9: LK-VRB-25s (ligand)
chain: B1 chain with D63S, L66R
B10: LK-VRB-14s (ligand)
chain: B1 chain with E18M, S25Y, D63S, G65M, L66R
B11: LK-VRB-22s (ligand)
chain: B1 chain with G65M
B12: LK-VRB-21s (ligand)
chain: B1 chain with D63S
B13: LK-VRB-11s (ligand)
chain: B1 chain with R22Q, S25Y, D63S, G65M, L66R
B14: LK-VRB-15s (ligand)
chain: B1 chain with E18M, R22Q, D63S, G65M, L66R
B15: LK-VRB-10s (ligand)
chain: B1 chain with E18M, L21Y, R22Q, D63S, G65M, L66R
B16: LK-VRB-24s (ligand)
chain: B1 chain with D63S, G65M
B17: LK-VRB-3s (ligand)
chain: B1 chain with F17I, L21F, R22K
B18: LK-VRB-20s (ligand)
chain: B1 chain with E18M, D63S, G65M, L66R
B19: LK-VRB-12s (ligand)
chain: B1 chain with L21Y, S25Y, D63S, G65M, L66R
B20: LK-VRB-16s (ligand)
chain: B1 chain with E18M, L21Y, D63S, G65M, L66R
B21: LK-VRB-26s (ligand)
chain: B1 chain with G65M, L66R
B22: LK-VRB-7s* (ligand)
chain: B1 chain with L21Y, R22Q, S25Y, D63S, G65M, L66R
B23: Native VEGF (8-109) (ligand)
chain: GQNHHEVVKFMDVYQRSYCHPIETLVDIFQEYPDEIEYIFKPSCVPLMRCGGCCNDEGLECVPTEESNITMQIMRIKPHQGQHIGEMSFLQHNKCECRPKKD

This is an account of results in patent US20060188503A1 (Genentech, published 2006).

Changes are numbered by the printed parent chain. Names and notes keep the numbering of the source.

T1 sequence (P35968 20-327 limits assumed): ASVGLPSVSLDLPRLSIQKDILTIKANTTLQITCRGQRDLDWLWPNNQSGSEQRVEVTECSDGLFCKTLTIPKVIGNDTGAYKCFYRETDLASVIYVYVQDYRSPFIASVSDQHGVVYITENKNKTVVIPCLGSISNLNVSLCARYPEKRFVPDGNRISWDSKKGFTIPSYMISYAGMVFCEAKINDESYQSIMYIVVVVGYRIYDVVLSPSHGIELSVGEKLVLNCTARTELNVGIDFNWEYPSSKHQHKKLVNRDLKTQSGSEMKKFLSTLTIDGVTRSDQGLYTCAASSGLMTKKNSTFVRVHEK
KDR Receptor (RIA of Example 11), sequence (P35968 20-764 limits assumed): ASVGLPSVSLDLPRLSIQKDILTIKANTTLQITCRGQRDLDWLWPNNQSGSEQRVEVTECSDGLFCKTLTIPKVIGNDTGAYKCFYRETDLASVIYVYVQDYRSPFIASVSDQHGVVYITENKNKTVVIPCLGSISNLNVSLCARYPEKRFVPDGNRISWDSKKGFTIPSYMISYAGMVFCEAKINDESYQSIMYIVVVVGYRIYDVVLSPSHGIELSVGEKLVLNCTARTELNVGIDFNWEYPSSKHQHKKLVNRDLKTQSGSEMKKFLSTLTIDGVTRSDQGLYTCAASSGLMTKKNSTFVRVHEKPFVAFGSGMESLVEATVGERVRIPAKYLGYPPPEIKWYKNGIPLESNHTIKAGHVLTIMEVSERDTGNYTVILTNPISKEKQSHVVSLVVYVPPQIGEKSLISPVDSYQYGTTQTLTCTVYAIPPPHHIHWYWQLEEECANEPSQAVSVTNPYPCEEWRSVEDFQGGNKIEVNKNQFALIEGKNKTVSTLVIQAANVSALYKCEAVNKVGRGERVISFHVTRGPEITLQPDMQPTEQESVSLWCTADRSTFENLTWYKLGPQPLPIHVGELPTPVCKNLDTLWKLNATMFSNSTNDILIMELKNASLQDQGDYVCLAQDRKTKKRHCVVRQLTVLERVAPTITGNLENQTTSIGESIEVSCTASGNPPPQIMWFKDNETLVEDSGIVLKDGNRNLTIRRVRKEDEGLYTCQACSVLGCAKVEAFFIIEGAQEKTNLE
FLT-1 Receptor (RIA of Example 11), sequence (P17948 27-758 limits assumed): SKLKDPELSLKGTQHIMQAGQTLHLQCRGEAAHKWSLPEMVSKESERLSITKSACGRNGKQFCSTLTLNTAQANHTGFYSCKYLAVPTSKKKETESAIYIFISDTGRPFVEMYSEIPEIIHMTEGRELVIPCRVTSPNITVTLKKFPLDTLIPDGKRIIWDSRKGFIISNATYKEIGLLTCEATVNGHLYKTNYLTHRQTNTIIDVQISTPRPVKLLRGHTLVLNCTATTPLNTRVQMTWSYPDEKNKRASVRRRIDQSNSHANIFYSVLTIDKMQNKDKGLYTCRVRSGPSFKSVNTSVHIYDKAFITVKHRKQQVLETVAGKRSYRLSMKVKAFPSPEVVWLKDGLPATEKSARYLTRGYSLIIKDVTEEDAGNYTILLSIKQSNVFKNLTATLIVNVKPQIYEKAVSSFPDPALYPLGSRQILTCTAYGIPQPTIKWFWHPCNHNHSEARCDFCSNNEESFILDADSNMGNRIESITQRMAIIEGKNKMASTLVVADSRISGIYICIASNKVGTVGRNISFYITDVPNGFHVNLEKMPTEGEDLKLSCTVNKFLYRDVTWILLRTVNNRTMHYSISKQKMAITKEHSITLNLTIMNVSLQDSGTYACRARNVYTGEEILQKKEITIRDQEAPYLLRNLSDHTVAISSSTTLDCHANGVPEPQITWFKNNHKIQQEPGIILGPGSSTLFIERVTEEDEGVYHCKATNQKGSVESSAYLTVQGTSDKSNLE

The first assay addresses T1, KDR (1-3) (UniProt P35968 20-327, limits assumed).
T1 construct: domain: KDR (1-3); Soluble KDR (1-3) at 1 ug/ml, captured on anti-KDR antibody MAKD5; also called KDR (1-3) monomer
The assay can be described thus: competition ELISA: displacement of biotinylated native VEGF (8-109) from KDR (1-3). Here is the method:
(§1) Aliquots of this mixture (100 μl) were added to the precoated microtiter wells and the plate was incubated for 1 hour at room temperature.
(§2) The wells were then incubated with 3,3′,5,5′-tetramethyl benzidine (0.2 gram/liter; Kirkegaard & Perry Laboratories, Gaithersburg, Md.) for about 10 minutes at room temperature. Absorbance was read at 450 nm on a Vmax plate reader (Molecular Devices, Menlo Park, Calif.).
(§3) Titration curves were fit with a four-parameter nonlinear regression curve-fitting program (KaleidaGraph, Synergy Software, Reading, Pa.).
For orientation: ELISA stands for enzyme-linked immunosorbent assay.
As for B1, the “relative binding affinity (ratio to native VEGF (8-109))” value worked out at 1 fold.

Consider B2, for which the “relative binding affinity (ratio to native VEGF (8-109))” value was determined as 7 fold.

Consider B3, for which the “relative binding affinity (ratio to native VEGF (8-109))” value was 0.5 fold.

Take B4: the “relative binding affinity (ratio to native VEGF (8-109))” value was determined as 0.5 fold.

B5: the “relative binding affinity (ratio to native VEGF (8-109))” value is 1 fold.

With B6, the “relative binding affinity (ratio to native VEGF (8-109))” value came to 14 fold.

Turning to B7, the “relative binding affinity (ratio to native VEGF (8-109))” value amounted to 11 fold.

Regarding B8, the “relative binding affinity (ratio to native VEGF (8-109))” value stood at 3 fold.

As for B9, the “relative binding affinity (ratio to native VEGF (8-109))” value was found to be 4 fold.

As to B10, the “relative binding affinity (ratio to native VEGF (8-109))” value was found to be 0.5 fold.

Turning to B11, the “relative binding affinity (ratio to native VEGF (8-109))” value came out at 4 fold.

As for B12, the “relative binding affinity (ratio to native VEGF (8-109))” value was 3 fold.

In the case of B13, the “relative binding affinity (ratio to native VEGF (8-109))” value was determined as 2 fold.

Regarding B14, the “relative binding affinity (ratio to native VEGF (8-109))” value is 2 fold.

On to B15, for which the “relative binding affinity (ratio to native VEGF (8-109))” value worked out at 0.5 fold.

For B16, the “relative binding affinity (ratio to native VEGF (8-109))” value is 10 fold.

For B17, the “relative binding affinity (ratio to native VEGF (8-109))” value amounted to 1 fold.

For the molecule B18, the “relative binding affinity (ratio to native VEGF (8-109))” value was 2 fold.

As for B19, the “relative binding affinity (ratio to native VEGF (8-109))” value is 0.4 fold.

With B20, the “relative binding affinity (ratio to native VEGF (8-109))” value is 0.6 fold.

As for B21, the “relative binding affinity (ratio to native VEGF (8-109))” value was determined as 23 fold.

Consider B22, for which the “relative binding affinity (ratio to native VEGF (8-109))” value was determined as 1 fold.

The target in the next assay is KDR receptor with a gD tag at the N-terminus, on CHO cells (UniProt P35968 20-1356). In words: cell-based or functional assay.
For the molecule B1, the “Phosphorylation-Inducing Activity (KIRA), ratio to native VEGF (8-109)” value stood at 0.5 fold.

Turning to B5, the “Phosphorylation-Inducing Activity (KIRA), ratio to native VEGF (8-109)” value stood at 0.5 fold.

Turning to B17, the “Phosphorylation-Inducing Activity (KIRA), ratio to native VEGF (8-109)” value amounted to 1 fold.

For a further assay, the target named is T1, KDR (1-3). The assay can be described thus: competition ELISA (Example 7): serially diluted unlabelled native VEGF (8-109) incubated with biotinylated native VEGF (8-109) (84 nM) and KDR (1-3) (1 ug/ml), complex captured on anti-KDR antibody MAKD5, detected with peroxidase-streptavidin, OD 450. Here is the method: as §1, §2, §3
In the case of B23, the “IC50 (read off the curve)” value is ~2 nM.

A further assay concerns the target FLT-1 Receptor (RIA of Example 11) (UniProt P17948 27-758, limits assumed). In words: RIA, essentially as in Muller et al. 1997.
With B1, the “relative binding affinity (ratio to native VEGF 165)” value was determined as 14000 fold.

Another assay concerns the target KDR Receptor (RIA of Example 11) (UniProt P35968 20-764, limits assumed). In words: RIA, essentially as in Muller et al. 1997.
Consider B1, for which the “relative binding affinity (ratio to native VEGF 165)” value is 20 fold.

For a further assay, the target named is T2, Flt-IgG (a chimeric Flt-human Fc molecule) (human, UniProt P17948 27-758, limits assumed).
T2 construct: not shown: human IgG Fc
T2 sequence (P17948 27-758 limits assumed, change not shown): as the sequence (P17948 27-758 limits assumed) above
The assay can be described thus: competition ELISA: displacement of biotinylated native VEGF from Flt-IgG. Here is the method:
The wells were filled with 100 μl of a solution containing Flt-IgG (a chimeric Flt-human Fc molecule) at 50 ng/ml in assay buffer (0.5% BSA, 0.05% Tween 20 in PBS). The wells were incubated at room temperature for 1 hour and then washed three times in wash buffer (0.05% Tween 20 in PBS).
Aliquots of the mixture (100 μl) were added to the precoated microtiter wells and the plate was incubated for 2 hours at room temperature. […] The wells were then incubated with […] (0.2 g/liter, Kirkegaard & Perry Laboratories, Gaithersburg, Md.) for about 10 minutes at room temperature. Absorbance was read at 450 nm on a Vmax plate reader (Molecular Devices, Menlo Park, Calif.).
as §3
As for B1, the “relative binding affinity (ratio to native VEGF (8-109))” value was determined as 6000 fold.

On to B3, for which the “relative binding affinity (ratio to native VEGF (8-109))” value was 300 fold.

On to B5, for which the “relative binding affinity (ratio to native VEGF (8-109))” value is 200 fold.

Consider B17, for which the “relative binding affinity (ratio to native VEGF (8-109))” value is 400 fold.

The target of a further assay is KDR receptor on human umbilical vein endothelial cells (HUVEC) (human, UniProt P35968 20-1356). In words: cell-based or functional assay.
KDR receptor on human umbilical vein endothelial cells (HUVEC), sequence (P35968 20-1356): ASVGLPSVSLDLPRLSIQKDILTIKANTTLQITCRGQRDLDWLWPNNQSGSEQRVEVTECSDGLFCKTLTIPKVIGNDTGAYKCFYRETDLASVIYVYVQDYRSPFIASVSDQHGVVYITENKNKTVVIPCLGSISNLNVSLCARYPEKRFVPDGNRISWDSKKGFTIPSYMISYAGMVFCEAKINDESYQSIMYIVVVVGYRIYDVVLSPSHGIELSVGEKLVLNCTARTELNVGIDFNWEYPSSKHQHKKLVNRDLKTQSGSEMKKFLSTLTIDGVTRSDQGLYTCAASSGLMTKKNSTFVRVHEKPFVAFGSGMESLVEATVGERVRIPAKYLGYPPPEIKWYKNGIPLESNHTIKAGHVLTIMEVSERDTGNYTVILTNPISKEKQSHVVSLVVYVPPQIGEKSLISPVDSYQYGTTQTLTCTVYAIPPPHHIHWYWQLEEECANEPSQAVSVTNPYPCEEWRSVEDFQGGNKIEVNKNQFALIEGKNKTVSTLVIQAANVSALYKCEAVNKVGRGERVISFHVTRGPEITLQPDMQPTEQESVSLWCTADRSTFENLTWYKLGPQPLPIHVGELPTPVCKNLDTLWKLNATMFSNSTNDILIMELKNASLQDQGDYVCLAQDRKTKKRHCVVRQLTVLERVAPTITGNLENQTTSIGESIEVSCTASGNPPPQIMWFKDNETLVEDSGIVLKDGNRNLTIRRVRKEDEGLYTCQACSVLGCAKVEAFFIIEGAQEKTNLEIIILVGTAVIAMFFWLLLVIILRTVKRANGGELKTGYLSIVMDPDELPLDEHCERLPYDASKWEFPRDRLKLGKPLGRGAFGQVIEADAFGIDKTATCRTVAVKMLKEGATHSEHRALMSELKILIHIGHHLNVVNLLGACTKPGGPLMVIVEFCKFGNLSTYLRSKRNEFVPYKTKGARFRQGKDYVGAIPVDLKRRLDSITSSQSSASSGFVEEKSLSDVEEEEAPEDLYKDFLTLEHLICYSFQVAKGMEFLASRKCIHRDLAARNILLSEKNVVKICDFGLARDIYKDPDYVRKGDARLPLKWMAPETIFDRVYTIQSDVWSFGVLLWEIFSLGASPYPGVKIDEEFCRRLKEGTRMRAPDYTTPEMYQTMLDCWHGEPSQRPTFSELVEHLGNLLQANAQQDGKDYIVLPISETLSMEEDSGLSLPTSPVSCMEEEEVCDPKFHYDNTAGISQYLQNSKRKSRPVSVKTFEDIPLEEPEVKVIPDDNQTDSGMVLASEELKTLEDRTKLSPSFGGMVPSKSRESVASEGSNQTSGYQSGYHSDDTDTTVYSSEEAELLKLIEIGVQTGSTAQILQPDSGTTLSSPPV
As for B1, the “Endothelial Cell Proliferation Activity (HUVEC), ratio to native VEGF (8-109)” value came to 0.2 fold.

As for B4, the “Endothelial Cell Proliferation Activity (HUVEC), ratio to native VEGF (8-109)” value came to 1 fold.

For the molecule B22, the “Endothelial Cell Proliferation Activity (HUVEC), ratio to native VEGF (8-109)” value worked out at 1 fold.

The target in another assay is T1, KDR (1-3). In words: competition ELISA: displacement of biotinylated native VEGF (8-109) from KDR (1-3); concentration at midpoint absorbance. Here is the method: as §1, §2, §3
As for B2, the IC50 (in general, the midpoint of a concentration-inhibition curve) is 7 nM.
